These results are taken from patent publication US20240417436A1 (BRIGHT PEAK THERAPEUTICS, published 2024).

Bridges are numbered along the chain shown (N, C = ends). Primed or numbered codes have the meaning given here. [ ]: non-standard residue; d: D form. Ygp″ = O-(PEG8-amino)-tyrosine (O-(8x polyethylene glycol-amino)-tyrosine); Yn3″ = O-(PEG9-azido)-tyrosine (O-(9x polyethylene glycol-azido)-tyrosine); Ygp = O-(8x polyethylene glycol-amino)-tyrosine; Yn3 = O-(9x polyethylene glycol-azido)-tyrosine; Ygp(3) = O-(PEG8-amino)-tyrosine; Yn3(3) = O-(PEG9-azido)-tyrosine; hSer = N[C@@H](CCO)C(=O)O; Nle = CCCC[C@H](N)C(=O)O

The target of assay [1] is T1, Avi-Tag Fc with human IL-2R beta and IL-2R gamma attached (Acrobiosystems ACRB-ILG-H82F3-25UG) (human, UniProt P14784 27-239; P31785 23-262).
T1 construct: bought heterodimer; also called CD122 CD132; CD122/CD132 complex
T1 sequence (looked up) 1: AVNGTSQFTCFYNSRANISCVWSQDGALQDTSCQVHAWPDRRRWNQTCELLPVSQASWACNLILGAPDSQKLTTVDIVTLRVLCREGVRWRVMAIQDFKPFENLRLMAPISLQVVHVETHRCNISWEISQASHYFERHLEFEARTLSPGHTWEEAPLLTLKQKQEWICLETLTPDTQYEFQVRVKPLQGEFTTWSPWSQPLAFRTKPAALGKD
T1 sequence (looked up) 2: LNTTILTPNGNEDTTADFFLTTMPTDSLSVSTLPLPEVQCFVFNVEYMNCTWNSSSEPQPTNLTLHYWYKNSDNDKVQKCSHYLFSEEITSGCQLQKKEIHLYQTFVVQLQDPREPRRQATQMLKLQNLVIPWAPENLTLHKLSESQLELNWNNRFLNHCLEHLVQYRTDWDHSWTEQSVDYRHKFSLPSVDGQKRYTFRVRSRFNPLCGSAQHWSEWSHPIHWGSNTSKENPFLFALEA
Put plainly: BLI (Octet), receptor on SAX2 sensor, IL-2 as analyte. The protocol: (§1) Bilayer interferometry (BLI) assays were used to measure the binding constants between activatable IL-2 polypeptides (and activated versions thereof) to IL-2 receptor subunits or receptor complexes. BLI assays were conducted on an Octet® R8 instrument. Assay plates were 96 well, polypropylene, F-bottom (chimney well), black microplates (Greiner Bio-one, Cat. No: 655209). The biosensors were Octet® SAX2 (Sartorius, Cat. No: 18-5136). The assay buffer was 1× Kinetic Buffer (Sartorius, Cat. no: 18-5136) or Phosphate Buffered Saline (PBS) that contained 0.02% (v: v) Tween 20 (Polysorbate 20) and 0.1% (w/v) bovine serum albumin (BSA). The sensor was regenerated between measurements in 10 mM glycine pH 2.7 buffer.
(§2) Sensor attached receptors were either recombinant human IL-2 receptor beta containing a His-tag and Avi-Tag™ (R&D Systems™ #AVI10459) or an Avi-Tag™ Fc with human IL-2R beta and IL-2R gamma attached (Acrobiosystems Cat. no: ACRB-ILG-H82F3-25UG). Receptors were reconstituted from lyophilized powder to 500 μg/ml in PBS. Analytes were diluted in Kinetic buffer to 300 nM, then serially diluted to lower concentrations.
A general note: BLI is a label-free optical method that tracks binding on a fibre tip over time.

Assay [2] addresses T2, recombinant human IL-2 receptor beta containing a His-tag and Avi-Tag (R&D Systems #AVI10459) (human, UniProt P14784 27-239).
T2 construct: bought protein, held on the Octet SAX2 sensor; also called CD122; IL-2Rβ
T2 sequence (looked up): T1 sequence (looked up) 1
The description is as above. The procedure:
as §1, §2

In assay [3] the target is T3, IL-2 receptor βγ complex on pan T cells (human, UniProt P14784 27-551; P31785 23-369).
T3 sequence (looked up) 1: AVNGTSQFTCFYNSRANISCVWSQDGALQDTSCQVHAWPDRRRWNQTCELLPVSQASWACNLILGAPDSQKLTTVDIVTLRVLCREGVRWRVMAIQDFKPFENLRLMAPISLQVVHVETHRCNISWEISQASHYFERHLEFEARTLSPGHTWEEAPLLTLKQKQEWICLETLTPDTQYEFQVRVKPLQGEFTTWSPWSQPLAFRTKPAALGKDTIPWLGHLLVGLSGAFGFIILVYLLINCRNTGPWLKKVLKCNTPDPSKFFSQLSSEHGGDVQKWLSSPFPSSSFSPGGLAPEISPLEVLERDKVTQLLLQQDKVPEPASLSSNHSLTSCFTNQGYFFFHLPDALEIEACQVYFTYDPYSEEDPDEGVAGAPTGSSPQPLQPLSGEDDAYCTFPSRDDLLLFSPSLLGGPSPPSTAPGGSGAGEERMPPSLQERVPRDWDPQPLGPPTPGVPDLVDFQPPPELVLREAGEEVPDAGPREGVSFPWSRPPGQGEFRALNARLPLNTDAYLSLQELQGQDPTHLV
T3 sequence (looked up) 2: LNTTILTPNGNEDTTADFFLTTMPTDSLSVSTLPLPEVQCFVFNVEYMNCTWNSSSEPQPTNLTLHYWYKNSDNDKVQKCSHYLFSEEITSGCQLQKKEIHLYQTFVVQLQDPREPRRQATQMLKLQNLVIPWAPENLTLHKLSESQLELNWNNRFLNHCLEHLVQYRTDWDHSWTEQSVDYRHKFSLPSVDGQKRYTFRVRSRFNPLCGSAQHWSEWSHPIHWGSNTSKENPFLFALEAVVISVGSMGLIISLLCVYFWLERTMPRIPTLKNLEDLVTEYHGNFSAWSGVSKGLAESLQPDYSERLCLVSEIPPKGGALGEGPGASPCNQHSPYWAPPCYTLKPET
In words: cell-based or functional assay.

The target in assay [4] is T1, Avi-Tag Fc with human IL-2R beta and …. Put plainly: BLI (Octet), receptor on SAX2 sensor, MMP2-treated IL-2 as analyte. The procedure:
as §1, §2

Assay [5] deals with T2, recombinant human IL-2 receptor beta …. Described as above. The protocol:
as §1, §2

B1: CMP-136 (ligand)
chain: APTSSSTKKTQLQLEHLLLDLQ[Nle]ILNGIENYKNPKLTR[Nle]L[hSer][Yn3″]KF[Ygp″][Nle]PKKATELKHLQCLEEELKPLEEVL[hSer]LAQSKNFHLRPRDLISNINVIVLELKGSETTF[hSer]CEYADETATIVEFLNRWITFSQSIISTLT
modifications: disulfide 58-105; bridge N-29; not fully specified (residue 29, bridges); also: cleavable peptide sequence not given here
As to B1, in assay [1], binding was put at a Kd of 12.6 nM, the koff turned out to be 0.00498 s⁻¹ and the kon came to 396000 M⁻¹ s⁻¹. In addition, in assay [2], the Kd came out at 8.44 nM, the koff was determined as 0.00767 s⁻¹ and the kon was 909000 M⁻¹ s⁻¹.

B2: CMP-305, MMP2 cleaved (ligand)
chain: APTSSSTKKTQLQLEHLLLDLQKILNGINNYKNPKLTR[Nle]L[hSer][Yn3]KF[Ygp][Nle]PKKATELKHLQCLEEELKPLEEVL[hSer]LAQSKNFHLRPRDLISNINVIVLELKGSETTF[hSer]CEYADETATIVEFLNRWITFSQSIISTLT
modifications: ends and bridges not checked; also: cleavable moiety between Glu15 and Lys23 side chains cut by MMP2, macrocycle opened, cut site not given here
Consider B2, for which the “Average EC50, pSTAT5 assay in pan T cells, MMP2 cleaved molecule” value in assay [3] is 3.26 nM.

B3: CMP-138 (ligand)
chain: APTSSSTKKTQLQLEHLLLDLQ[Nle]ILNGIENYKNPKLTR[Nle]L[hSer][Yn3]KF[Ygp][Nle]PKKATELKHLQCLEEELKPLEEVL[hSer]LAQSKNFHLRPRDLISNINVIVLELKGSETTF[hSer]CEYADETATIVEFLNRWITFSQSIISTLT
modifications: disulfide 58-105; bridge N-29; not fully specified (residue 29, bridges)
In assay [1], B3 displayed a Kd of 12.3 nM, a koff of 0.00284 s⁻¹ and a kon of 232000 M⁻¹ s⁻¹. In assay [2], the Kd was 11.7 nM, the koff worked out at 0.0105 s⁻¹ and the kon came to 898000 M⁻¹ s⁻¹.

B4: CMP-319 (ligand)
chain: RGRRVANLVGAPTSSSTKKTQLQLEHLLLDLQEILNGINNYKNPKLTR[Nle]L[hSer][Yn3(3)]KF[Ygp(3)][Nle]PKKATELKHLQCLEEELKPLEEVL[hSer]LAQSKNFHLRPRDLISNINVIVLELKGSETTF[hSer]CEYADETATIVEFLNRWITFSQSIISTLT
modifications: lactam N-33; not fully specified (bridges)
In assay [1], B4 registered a Kd of 9.19 nM, a koff of 0.000786 s⁻¹ and a kon of 85500 M⁻¹ s⁻¹. In assay [2], the Kd is 59.5 nM, the koff is 0.0122 s⁻¹ and the kon is 206000 M⁻¹ s⁻¹.

B5: CMP-165, MMP2 cleaved (ligand)
chain: APTSSSTKKTQLQLEHLLLDLQKILNGINNYKNPKLTR[Nle]L[hSer][Yn3]KF[Ygp][Nle]PKKATELKHLQCLEEELKPLEEVL[hSer]LAQSKNFHLRPRDLISNINVIVLELKGSETTF[hSer]CEYADETATIVEFLNRWITFSQSIISTLT
modifications: disulfide 58-105 (inferred); not fully specified (residue 23, N-terminus); also: MMP2 cleaved, ring opened, cut site not given here, peptide remnants on N-terminus (via glutaryl) and on Lys23 side chain
With B5, the “Average EC50, pSTAT5 assay in pan T cells, MMP2 cleaved molecule” value in assay [3] worked out at 1.42 nM. For the same molecule, in assay [4], binding was characterised by a dissociation constant (Kd) of 1.88 nM, the koff turned out to be 0.00114 s⁻¹ and the kon amounted to 608000 M⁻¹ s⁻¹. Further, in assay [5], the Kd was 1110 nM, the koff was determined as 0.237 s⁻¹ and the kon was determined as 213000 M⁻¹ s⁻¹.

As a reminder, the Kd is the constant that tells how readily two partners part at equilibrium. Broadly, the koff is the first-order rate constant of dissociation. The kon is the second-order rate constant of association.
